What is called koff is the rate constant with which the complex falls apart.

For one molecule, koff results are on record in article PMC10360031 (ACS Applied Materials & Interfaces, 2023).

The test concerns the target T1, wild-strain SARS-CoV-2 spike protein RBD (SARS-CoV-2, UniProt P0DTC2).
T1 construct: also called S1 RBD; wild-type strain S1 RBD
Description: AFM single-molecule force spectroscopy. The note with it: one partner purified.

B1: cell-surface vimentin (CSV) on mouse embryonic fibroblasts mEF +/+ (natural protein)
chain: not shown
notes: also called extracellular Vim; native extracellular Vim; source: endogenous, on live mEF +/+ cells
B1 registered a dissociation rate constant (koff) of 0.19 ± 0.07 s⁻¹.
